This is an account of results in patent US20260098102A1 (NATIONAL UNIVERSITY CORPORATION KOBE UNIVERSITY, published 2026).

In assay [1] the target is T1, mouse SIRPA_C57BL/6 (mouse (C57BL/6), UniProt P97797 32-513).
T1 construct: FLAG-tagged (pFLAG V5-DEST), on 293α cells
T1 sequence: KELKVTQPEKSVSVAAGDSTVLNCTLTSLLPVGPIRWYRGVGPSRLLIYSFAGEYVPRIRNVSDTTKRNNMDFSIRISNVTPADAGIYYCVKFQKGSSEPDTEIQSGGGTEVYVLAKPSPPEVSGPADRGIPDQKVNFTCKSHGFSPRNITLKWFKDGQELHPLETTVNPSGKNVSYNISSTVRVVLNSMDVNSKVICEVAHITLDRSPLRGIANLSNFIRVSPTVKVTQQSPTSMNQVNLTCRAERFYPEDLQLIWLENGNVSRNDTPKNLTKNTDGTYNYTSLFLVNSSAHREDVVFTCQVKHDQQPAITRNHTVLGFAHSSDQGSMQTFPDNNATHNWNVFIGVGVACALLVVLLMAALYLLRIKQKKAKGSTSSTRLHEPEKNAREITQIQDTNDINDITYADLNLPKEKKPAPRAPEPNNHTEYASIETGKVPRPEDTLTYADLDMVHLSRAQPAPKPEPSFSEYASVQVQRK
The assay can be described thus: cell-based ELISA on 293α cells expressing FLAG-tagged mouse SIRPA (C57BL/6); Abs 490 normalized to FLAG tag [i]. The procedure: (§1) The 293a cells, described in Example 1)-6, were prepared at 5× 10⁵ cells/mL in a 10% FBS-containing DMEM medium. pFLAG V5-DEST-SIRPA_V1-V10, pFLAG V5-DEST-monkey SIRPA, pFLAG V5-DEST-mouse SIRPA, or pFLAG V5-DEST was introduced into the cells using Lipofectamine LTX (Invitrogen), and 100 μL each was aliquoted to a 96-well plate (Corning Incorporated) and cultured overnight in a 10% FBS-containing DMEM medium at 37° C. under a 5% CO₂ condition. The obtained introduced cells were used for cell-based ELISA in a state that they adhered. After the culture supernatant was removed, 50 μL per well of hD13_HIL3, hD13_HIL4h, hD13_H2L2, hD13_H2L3, or cD13 prepared in Examples 6 and 7 or a control antibody was added to each of various SIRPA genes-introduced cells at a final concentration of 0 to 10,000 ng/ml, and the mixture was allowed to stand at 4° C. for one hour. Thereafter, binding to human SIRPA was evaluated in the same manner as in Example 5-1.
On the technique in general: In an ELISA, binding on a coated surface is turned into a signal by an enzyme label.

Assay [2] has as its target T2, human SIRPA_V4 (human, UniProt P78324 31-504).
T2 construct: FLAG-tagged (pFLAG V5-DEST), on 293α cells; also called human SIRPA Variant 4
T2 chain: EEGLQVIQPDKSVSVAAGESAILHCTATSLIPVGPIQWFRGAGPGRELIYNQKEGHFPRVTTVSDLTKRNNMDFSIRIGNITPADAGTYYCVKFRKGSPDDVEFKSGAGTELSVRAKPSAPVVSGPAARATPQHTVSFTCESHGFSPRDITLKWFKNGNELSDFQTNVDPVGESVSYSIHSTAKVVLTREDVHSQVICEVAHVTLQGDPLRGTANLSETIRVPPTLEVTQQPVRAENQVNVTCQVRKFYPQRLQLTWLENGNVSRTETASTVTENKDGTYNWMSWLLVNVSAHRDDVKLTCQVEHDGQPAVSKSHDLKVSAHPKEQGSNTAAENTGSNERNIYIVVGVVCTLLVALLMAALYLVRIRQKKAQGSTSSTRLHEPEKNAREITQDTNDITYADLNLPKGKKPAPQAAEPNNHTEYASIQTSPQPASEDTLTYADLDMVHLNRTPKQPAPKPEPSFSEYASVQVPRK
As to the kind of experiment: cell-based ELISA on 293α cells expressing FLAG-tagged SIRPA_V4; Abs 490 normalized to FLAG tag [iv]. How it is done:
as §1

In assay [3] the target is T3, mouse SIRPA variant hmSIRPA_Δ2 (mouse (with human residues), UniProt P97797 35-513).
T3 construct: FLAG-tagged (pFLAG V5-DEST), on 293α cells; also called hmSIRPA_Δ42 [sic]
T3 chain: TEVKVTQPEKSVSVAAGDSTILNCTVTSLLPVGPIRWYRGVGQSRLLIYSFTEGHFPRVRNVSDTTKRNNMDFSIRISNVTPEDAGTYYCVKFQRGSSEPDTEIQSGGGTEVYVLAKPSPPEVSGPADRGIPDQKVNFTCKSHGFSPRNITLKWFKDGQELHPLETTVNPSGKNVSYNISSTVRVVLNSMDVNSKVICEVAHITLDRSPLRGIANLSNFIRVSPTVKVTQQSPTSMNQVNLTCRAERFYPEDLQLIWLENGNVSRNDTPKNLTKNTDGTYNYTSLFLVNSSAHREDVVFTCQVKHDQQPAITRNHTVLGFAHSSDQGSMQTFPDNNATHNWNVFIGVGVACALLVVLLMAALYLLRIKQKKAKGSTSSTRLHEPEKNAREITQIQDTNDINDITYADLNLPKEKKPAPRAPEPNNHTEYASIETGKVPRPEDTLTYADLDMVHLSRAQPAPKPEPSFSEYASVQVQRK
As to the kind of experiment: cell-based ELISA on 293α cells expressing FLAG-tagged hmSIRPA_Δ2; Abs 490 normalized to FLAG tag [iii]. The procedure:
After the culture supernatant of 293α cells into which the pFLAG V5-DEST-hmSIRPA_Δ0, Δ1, and Δ2 expression vector prepared in 2)-1-2-2 was introduced and the pFLAG V5-DEST-introduced 293α cells was removed, 50 μL per well of four different D13 humanized anti-human SIRPA antibodies and a chimeric anti-human SIRPA antibody diluted with 5% FBS-containing PBS to a final concentration of 10,000 ng/mL were added to these cells, and the mixture was allowed to stand at 4° C. for one hour. Further, 50 μL per well of an anti-FLAG M2 antibody (SIGMA) diluted with 5% FBS-containing PBS to a final concentration of 10,000 ng/mL was added to a well for detecting expression of each SIRPA construct, and the mixture was allowed to stand at 4° C. for one hour. Thereafter, binding to each construct was evaluated in the same manner as in the evaluation of the binding activity of the human SIRPA. Binding of anti-human SIRPA antibodies to each construct was standardized by expression of the FLAG tag.

The target in assay [4] is T4, human SIRPA_V10 (human, UniProt P78324 31-504).
T4 construct: FLAG-tagged (pFLAG V5-DEST), on 293α cells; also called human SIRPA Variant 10
As to the kind of experiment: cell-based ELISA on 293α cells expressing FLAG-tagged SIRPA_V10; Abs 490 normalized to FLAG tag [ii]. How it is done:
as §1

T4 sequence (P78324 other isoform, or with tags, fused parts or gaps limits assumed): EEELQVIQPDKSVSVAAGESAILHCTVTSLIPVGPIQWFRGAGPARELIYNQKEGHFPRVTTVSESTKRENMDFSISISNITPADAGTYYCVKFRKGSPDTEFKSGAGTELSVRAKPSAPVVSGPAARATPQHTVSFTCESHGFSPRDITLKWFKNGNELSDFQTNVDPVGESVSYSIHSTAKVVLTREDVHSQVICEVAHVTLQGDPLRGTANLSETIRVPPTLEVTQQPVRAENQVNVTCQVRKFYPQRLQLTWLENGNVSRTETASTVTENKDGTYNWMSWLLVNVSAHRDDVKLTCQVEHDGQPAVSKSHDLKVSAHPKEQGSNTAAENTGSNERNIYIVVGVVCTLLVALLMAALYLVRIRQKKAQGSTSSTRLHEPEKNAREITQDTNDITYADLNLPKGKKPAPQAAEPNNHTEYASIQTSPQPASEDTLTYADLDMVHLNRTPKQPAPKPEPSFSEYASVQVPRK

B1: human chimeric anti-SIRPA antibody cD13 (antibody, human IgG4 S228P, kappa, F234A L235A, V domains shown)
VH: EVQLVESGGGLVQPGRSLKLSCLASGFTFSDYGMIWVRQAPGKGLEWVASISSSSSYIYYADTVKGRFTISRENAKNTLFLHMTSLRSEDTALYYCARRYYGFNYPFDYWGQGVMVTVSS
VL: DTVLTQSPALAVSLGQRVTISCGASKSVRTYMHWYQQKSGQQPKLLIYSASNLEAGVPSRFSGSGSGTDFTLTIDPVEADDIANYYCQQSNEPPYTFGAGTKLELKR
notes: Human IgG4proFALA heavy chain, human kappa light chain; also called cD13 (IgG4pf); human chimeric antibody D13
As a reminder, the EC50 (read off the curve) is the midpoint of the concentration-response curve. Read a high EC50 (read off the curve) as a less potent agent. On to B1, for which the binding result in assay [1] and in assay [3] was “no binding (tested: 10000 ng/mL)” throughout. The 50% effective concentration (EC50 (read off the curve)) is around 0.04 µg/mL in assay [2] and around 0.03 µg/mL in assay [4].

B2: humanized anti-SIRPA antibody hD13_H1L3 (antibody, human IgG4 S228P, kappa, F234A L235A, V domains shown)
VH: QVQLVESGGGVVQPGRSLRLSCAASGFTFSDYGMIWVRQAPGKGLEWVASISSSSSYIYYADSVKGRFTISRDNSKNRLYLQMNSLRAEDTAVYYCARRYYGFNYPFDYWGQGTMVTVSS
VL: DTQLTQSPSSLSASVGQRVTITCGASKSVRTYMHWYQQKPGKQPKLLIYSASNLEAGVPSRFSGSGSGTDFTLTISSLQPEDFATYYCQQSNEPPYTFGQGTKLEIKR
notes: hH1 heavy chain (IgG4proFALA) and hL3 kappa light chain; also called hD13_HIL3; HIL3 antibody
Turning to B2, the binding result in assay [1] and in assay [3] was “no binding (tested: 10000 ng/mL)” throughout. The concentration giving a half-maximal response (EC50 (read off the curve)) in assay [2] and in assay [4] was around 0.03 µg/mL in each case.

B3: humanized anti-SIRPA antibody hD13_H2L2 (antibody, human IgG4 S228P, kappa, F234A L235A, V domains shown)
VH: EVQLVESGGGVVQPGRSLRLSCAASGFTFSDYGMIWVRQAPGKGLEWVASISSSSSYIYYADSVKGRFTISRDNSKNTLYLQMNSLRAEDTAVYYCARRYYGFNYPFDYWGQGTMVTVSS
VL: AIQLTQSPSSLSASVGQRVTITCGASKSVRTYMHWYQQKPGKAPKLLIYSASNLEAGVPSRFSGSGSGTDFTLTISSLQPEDFATYYCQQSNEPPYTFGQGTKLEIKR
notes: hH2 heavy chain (IgG4proFALA) and hL2 kappa light chain; also called H2L2 antibody
For B3, the binding result in assay [1] and in assay [3] was “no binding (tested: 10000 ng/mL)” in each case. Besides, the “EC50 (read off the curve)” value in assay [2] was around 0.04 µg/mL; in assay [4], around 0.03 µg/mL.

B4: humanized anti-SIRPA antibody hD13_H1L4 (antibody, human IgG4 S228P, kappa, F234A L235A, V domains shown)
VH: QVQLVESGGGVVQPGRSLRLSCAASGFTFSDYGMIWVRQAPGKGLEWVASISSSSSYIYYADSVKGRFTISRDNSKNRLYLQMNSLRAEDTAVYYCARRYYGFNYPFDYWGQGTMVTVSS
VL: DTVLTQSPDSLAVSLGQRATINCGASKSVRTYMHWYQQKPGQQPKLLIYSASNLEAGVPSRFSGSGSGTDFTLTISSLQAEDVAVYYCQQSNEPPYTFGQGTKVEIKR
notes: hH1 heavy chain (IgG4proFALA) and hL4 kappa light chain; also called hD13_HIL4; hD13_HIL4h
B4: the binding result in assay [1] and in assay [3] was “no binding (tested: 10000 ng/mL)” in each case. For the same molecule, the “EC50 (read off the curve)” value in assay [2] is around 0.04 µg/mL; in assay [4], around 0.03 µg/mL.

B5: humanized anti-SIRPA antibody hD13_H2L3 (antibody, human IgG4 S228P, kappa, F234A L235A, V domains shown)
VH: EVQLVESGGGVVQPGRSLRLSCAASGFTFSDYGMIWVRQAPGKGLEWVASISSSSSYIYYADSVKGRFTISRDNSKNTLYLQMNSLRAEDTAVYYCARRYYGFNYPFDYWGQGTMVTVSS
VL: DTQLTQSPSSLSASVGQRVTITCGASKSVRTYMHWYQQKPGKQPKLLIYSASNLEAGVPSRFSGSGSGTDFTLTISSLQPEDFATYYCQQSNEPPYTFGQGTKLEIKR
notes: hH2 heavy chain (IgG4proFALA) and hL3 kappa light chain; also called H2L3 antibody
As for B5, the binding result in assay [1] and in assay [3] was “no binding (tested: 10000 ng/mL)” throughout. Also, the entries for the concentration giving a half-maximal response (EC50 (read off the curve)) in assay [2] and in assay [4] were around 0.04 µg/mL and around 0.03 µg/mL, respectively.
